Test results as given in paper PMC9224930, “VH3-53/66-Class RBD-Specific Human Monoclonal Antibody iB20 Displays Cross-Neutralizing Activity against Emerging SARS-CoV-2 Lineages” (Journal of Personalized Medicine, 2022).

Biological target: T1, SARS-CoV-2 Wuhan-1 receptor-binding domain (RBD) (SARS-CoV-2 (Wuhan-1), UniProt P0DTC2)
T1 construct: also called Wuhan RBD; w.t; RBD
Experiment: BLI; pairwise competition on NTA biosensors (Octet RED96): Wuhan RBD immobilised via its 6xHis tag (200 s), first antibody added (600 s), then the second (600 s)
Conditions: both partners purified

B1: nAb CV30 (antibody, V domains shown)
VH: QVQLVESGGGLIQPGGSLRLSCAASGVIVSSNYMSWVRQAPGKGLEWVSVIYSGGSTYYADSVKGRFTISRDNSKNTLYLQMNSLRAEDTAVYYCARDLDVSGGMDVWGQGTTVTVSS
VL: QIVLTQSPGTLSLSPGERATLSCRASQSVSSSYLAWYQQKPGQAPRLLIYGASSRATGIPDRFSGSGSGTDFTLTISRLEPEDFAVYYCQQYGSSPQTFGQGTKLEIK
notes: also called recombinant CV30
binding result: binds
